Numbering of substitutions follows the chain as printed.
Assays:
Test in all cases: ITC; β16β17 at 25–50 μM in the cell titrated with 15–20 injections to 2–2.5 eq of α0α1; one-site binding model; PBS (50 mM sodium phosphate, 150 mM NaCl, pH 7.04), 25 °C; mutants only against the wild-type partner
Conditions in all cases: both partners purified
β16β17 F51L = β16β17 F51L (human, UniProt P11277 1898-2083, F51L (domain identifier), printed F2054G as protein identifier, The table's protein identifier F2054G is taken as a typo: the domain identifier is F51L (offset 2003), and the text says aromatic residues were mutated to Ala or Leu)
β16β17 L29A = target: T1, β16β17 L29A (human, UniProt P11277 1898-2083, L2032A)
T1 construct: erythrocyte β-spectrin, human, residues 1898-2083 (β16β17); mutant of m2; also called L2032A; source: E. coli C41(DE3), purified (Ni2+ agarose, thrombin cleavage, gel filtration)
T1 sequence (looked up): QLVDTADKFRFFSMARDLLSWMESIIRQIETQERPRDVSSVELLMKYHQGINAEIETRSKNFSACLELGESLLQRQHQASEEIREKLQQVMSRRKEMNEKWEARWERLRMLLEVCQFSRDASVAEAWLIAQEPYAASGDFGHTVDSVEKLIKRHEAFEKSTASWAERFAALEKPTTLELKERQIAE

β16β17 F62A = target: T2, β16β17 F62A (human, UniProt P11277 1898-2083, F2065A)
T2 construct: erythrocyte β-spectrin, human, residues 1898-2083 (β16β17); mutant of m2; also called F2065A; source: E. coli C41(DE3), purified (Ni2+ agarose, thrombin cleavage, gel filtration)
T2 sequence (looked up): T1 sequence (looked up) with A135L, F168A

[1] = target: T3, β16β17 (erythrocyte β-spectrin residues 1898–2083), wild type (human, UniProt P11277 1898-2083)
T3 construct: erythrocyte β-spectrin, human, residues 1898-2083 (β16 plus the incomplete 17th domain); synthetic gene (GenScript) in a modified pRSETA plasmid; source: E. coli C41(DE3), purified (Ni2+ agarose, thrombin cleavage, gel filtration)
T3 sequence (looked up): T1 sequence (looked up) with A135L

β16β17 A15G = target: T4, β16β17 A15G (human, UniProt P11277 1898-2083, A2018G)
T4 construct: erythrocyte β-spectrin, human, residues 1898-2083 (β16β17); mutant of m2; also called A2018G; source: E. coli C41(DE3), purified (Ni2+ agarose, thrombin cleavage, gel filtration)
T4 sequence (looked up): T1 sequence (looked up) with A121G, A135L

β16β17 E19A = target: T5, β16β17 E19A (human, UniProt P11277 1898-2083, E2022A)
T5 construct: erythrocyte β-spectrin, human, residues 1898-2083 (β16β17); mutant of m2; also called E2022A; source: E. coli C41(DE3), purified (Ni2+ agarose, thrombin cleavage, gel filtration)
T5 sequence (looked up): T1 sequence (looked up) with E125A, A135L

β16β17 L22A = target: T6, β16β17 L22A (human, UniProt P11277 1898-2083, L2025A)
T6 construct: erythrocyte β-spectrin, human, residues 1898-2083 (β16β17); mutant of m2; also called L2025A; source: E. coli C41(DE3), purified (Ni2+ agarose, thrombin cleavage, gel filtration)
T6 sequence (looked up): T1 sequence (looked up) with L128A, A135L

B1: α0α1 (erythrocyte α-spectrin residues 2–163), wild type (domain or fragment, human, UniProt P02549 2-163, looked up)
chain: EQFPKETVVESSGPKVLETAEEIQERRQEVLTRYQSFKERVAERGQKLEDSYHLQVFKRDADDLGKWIMEKVNILTDKSYEDPTNIQGKYQKHQSLEAEVQTKSRLMSELEKTREERFTMGHSAHEETKAHIEELRHLWDLLLELTLEKGDQLLRALKFQQY
notes: synthetic gene (GenScript) in a modified pRSETA plasmid; also called α1α0; source: E. coli C41(DE3), purified (Ni2+ agarose, thrombin cleavage, gel filtration)
- Ka (β16β17 F51L): 180000 M⁻¹
- Ka (β16β17 L29A): 290000 M⁻¹
- Ka (β16β17 F62A): 13000 M⁻¹
- Ka [1]: 2.07e+06 M⁻¹
- Ka (β16β17 A15G): 6000 M⁻¹
- Ka (β16β17 E19A): 93000 M⁻¹
- Ka (β16β17 L22A): 6000 M⁻¹

Source: publication PMC9082959, “Mechanism of Assembly of the Non-Covalent Spectrin Tetramerization Domain from Intrinsically Disordered Partners” (Journal of molecular biology, 2013)
